Test results reported in patent publication US20160185837A1 (Medimmune Limited, priority 2013, published 2016).
Like-named read-outs stand apart in the source and are kept apart here. Ends that are not written are not given here.

Key:
Type in all cases: cell-based
[1] = target: T1, human GLP-1 receptor (hGLP-1r) (Homo sapiens, UniProt P43220); assay: BSA-cAMP assay, cells expressing human GLP-1 receptor; settings: BSA-cAMP assay
T1 construct: expressed in transfected cells
Procedure: (§1) One basic cAMP assays was performed, differing in the medium used for the assay, the “BSA-cAMP assay”:
(§2) BSA-based assay medium: 0.1% bovine serum albumin (BSA) in
(§3) In certain aspects, the assay can also be carried out in medium supplemented with serum albumin that corresponds to the receptor being tested, e.g., human serum albumin for testing cAMP activity at hGIPr or hGLP-1r, rat serum albumin for testing cAMP activity at rGIPr or rGLP-1r, and so on. […] All sample dilutions were made in duplicate.
(§4) A frozen cryo-vial of cells expressing the receptor of interest was thawed rapidly in a water-bath, transferred to pre-warmed assay media and spun at 240×g for 5 minutes. Cells were re-suspended in assay buffer at an optimized concentration (e.g., hGLP-1r and hGIPr cells at 0.5×10^5 cells/ml).
(§5) To this, 5 μL cell suspension was added and the plates incubated at room temperature for 30 minutes.
(§6) cAMP levels were measured using a commercially available cAMP dynamic 2 HTRF kit (Cisbio, Cat #62AM4PEJ), following the two step protocol as per manufacturer's recommendations. In brief; anti-cAMP cryptate (donor fluorophore) and cAMP-d2 (acceptor fluorophore) were made up separately by diluting each 1/20 in conjugate & lysis buffer provided in the kit. 5 μL anti-cAMP cryptate was added to all wells of the assay plate, and 5 μL cAMP-d2 added to all wells except non-specific binding (NSB) wells, to which conjugate and lysis buffer was added. […] Data was transformed to % Delta F as described in manufacturer's guidelines and then transformed to percent activation of maximal native agonist response and analysed by 4-parameter logistic fit to determine EC50 values.
(§7) We used unconstrained 4 parameter logistic fit of data, curve mid-point to determine EC50. This was tested on two occasions, not two batches.

[2] = target: T2, mouse GIP receptor (mGIPr) (Mus musculus, UniProt Q0P543); assay: BSA-cAMP assay, cells expressing mouse GIP receptor; settings: Batch 1; BSA-cAMP assay; read-out: mGIPr cAMP activity EC50
T2 construct: expressed in transfected cells; host or cells: HEK293s or CHO cells
T2 sequence (Q0P543 19-460): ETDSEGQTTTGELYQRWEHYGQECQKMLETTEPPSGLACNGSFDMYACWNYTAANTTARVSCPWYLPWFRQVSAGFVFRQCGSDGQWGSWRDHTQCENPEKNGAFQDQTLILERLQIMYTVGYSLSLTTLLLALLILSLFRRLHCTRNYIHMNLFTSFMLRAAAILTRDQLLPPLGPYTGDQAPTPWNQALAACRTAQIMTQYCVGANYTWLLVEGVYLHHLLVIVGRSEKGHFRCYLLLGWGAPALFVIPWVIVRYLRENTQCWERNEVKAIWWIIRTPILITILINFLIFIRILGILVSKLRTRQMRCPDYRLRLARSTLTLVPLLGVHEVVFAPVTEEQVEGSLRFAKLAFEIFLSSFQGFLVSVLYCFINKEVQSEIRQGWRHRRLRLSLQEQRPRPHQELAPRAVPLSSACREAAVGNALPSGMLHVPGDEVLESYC
Procedure: as §1, §2, §3, §4, §5, §6, §7
(§8) In order to be able to carry out in vivo studies in rodents, IP088 was tested for potency against the mouse receptors mGIPr and mGLP-1r as well as the rat receptors rGIPr and rGLP-1r, using cells expressing the respective receptors in the cAMP assay described above.

[3] = target: T3, human glucagon receptor (GCGr) (Homo sapiens, UniProt P47871); assay: BSA-cAMP assay, cells expressing human glucagon receptor; settings: Batch 1, read-out: hGCGr cAMP activity EC50
T3 construct: expressed in transfected cells; host or cells: HEK293s or CHO cells
Procedure: as §1, §2, §3, §4, §5, §6, §7

[4] = target: T4, rat GLP-1 receptor (rGLP-1r) (Rattus norvegicus, UniProt P32301); assay: BSA-cAMP assay, cells expressing rat GLP-1 receptor; settings: Batch 1; BSA-cAMP assay; read-out: rGLP1r cAMP activity EC50
T4 construct: expressed in transfected cells; host or cells: HEK293s or CHO cells
T4 sequence (P32301 22-463): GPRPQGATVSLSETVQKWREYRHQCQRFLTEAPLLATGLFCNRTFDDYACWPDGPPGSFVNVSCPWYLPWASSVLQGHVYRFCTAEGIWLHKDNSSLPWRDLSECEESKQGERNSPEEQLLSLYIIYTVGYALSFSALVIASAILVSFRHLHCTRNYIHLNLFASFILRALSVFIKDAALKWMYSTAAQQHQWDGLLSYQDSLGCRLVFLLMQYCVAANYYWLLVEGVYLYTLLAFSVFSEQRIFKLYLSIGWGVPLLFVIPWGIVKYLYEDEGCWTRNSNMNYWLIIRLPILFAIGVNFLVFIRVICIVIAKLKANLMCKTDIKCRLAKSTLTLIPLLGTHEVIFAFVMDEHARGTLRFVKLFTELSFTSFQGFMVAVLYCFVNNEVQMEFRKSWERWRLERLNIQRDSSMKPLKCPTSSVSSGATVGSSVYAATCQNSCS
Procedure: as §1, §2, §3, §4, §5, §6, §7, §8

rat GIP receptor (rGIPr) = target: T5, rat GIP receptor (rGIPr) (Rattus norvegicus, UniProt P43219); assay: BSA-cAMP assay, cells expressing rat GIP receptor; settings: Batch 1; BSA-cAMP assay; read-out: rGIPr cAMP activity EC50
T5 construct: expressed in transfected cells; host or cells: HEK293s or CHO cells
T5 sequence (P43219 19-455): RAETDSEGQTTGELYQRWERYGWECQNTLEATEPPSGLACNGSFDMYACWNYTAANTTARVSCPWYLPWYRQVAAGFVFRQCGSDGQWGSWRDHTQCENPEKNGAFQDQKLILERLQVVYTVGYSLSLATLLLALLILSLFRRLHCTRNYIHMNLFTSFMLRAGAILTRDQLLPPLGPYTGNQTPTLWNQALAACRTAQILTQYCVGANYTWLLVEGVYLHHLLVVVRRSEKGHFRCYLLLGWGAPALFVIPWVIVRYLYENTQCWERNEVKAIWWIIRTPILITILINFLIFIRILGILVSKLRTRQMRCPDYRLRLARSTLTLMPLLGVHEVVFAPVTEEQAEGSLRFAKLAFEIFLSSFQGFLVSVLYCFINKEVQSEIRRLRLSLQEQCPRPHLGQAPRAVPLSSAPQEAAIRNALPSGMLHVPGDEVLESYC
Procedure: as §1, §2, §3, §4, §5, §6, §7, §8

[5] = target: T6, human GIP receptor (hGIPr) (Homo sapiens, UniProt P48546); assay: BSA-cAMP assay, cells expressing human GIP receptor; settings: Batch 1; BSA-cAMP assay; read-out: hGIPr cAMP activity EC50
T6 construct: expressed in transfected cells
T6 sequence (P48546 22-466): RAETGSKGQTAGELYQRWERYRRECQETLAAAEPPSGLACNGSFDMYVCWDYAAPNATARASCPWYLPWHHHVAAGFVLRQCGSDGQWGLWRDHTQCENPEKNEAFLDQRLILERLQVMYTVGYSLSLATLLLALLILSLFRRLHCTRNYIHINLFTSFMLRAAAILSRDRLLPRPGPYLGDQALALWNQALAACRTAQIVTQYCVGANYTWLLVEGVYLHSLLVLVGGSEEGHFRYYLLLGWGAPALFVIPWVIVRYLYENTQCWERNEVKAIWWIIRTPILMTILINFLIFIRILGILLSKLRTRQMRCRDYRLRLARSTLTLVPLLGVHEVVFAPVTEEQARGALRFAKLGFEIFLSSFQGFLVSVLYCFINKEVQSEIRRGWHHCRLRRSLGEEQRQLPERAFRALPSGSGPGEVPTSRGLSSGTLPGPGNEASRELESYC
Procedure: For human GIPr, two different lines were used, shown as “hGIPr” and “hGIPr (C3)” in Table 11.
as §1, §2, §3, §4, §5, §6, §7

[6] = target: T7, mouse GLP-1 receptor (mGLP-1r) (Mus musculus, UniProt O35659); assay: BSA-cAMP assay, cells expressing mouse GLP-1 receptor; settings: Batch 1; BSA-cAMP assay; read-out: mGLP1r cAMP activity EC50
T7 construct: expressed in transfected cells; host or cells: HEK293s or CHO cells
T7 sequence (O35659 22-463): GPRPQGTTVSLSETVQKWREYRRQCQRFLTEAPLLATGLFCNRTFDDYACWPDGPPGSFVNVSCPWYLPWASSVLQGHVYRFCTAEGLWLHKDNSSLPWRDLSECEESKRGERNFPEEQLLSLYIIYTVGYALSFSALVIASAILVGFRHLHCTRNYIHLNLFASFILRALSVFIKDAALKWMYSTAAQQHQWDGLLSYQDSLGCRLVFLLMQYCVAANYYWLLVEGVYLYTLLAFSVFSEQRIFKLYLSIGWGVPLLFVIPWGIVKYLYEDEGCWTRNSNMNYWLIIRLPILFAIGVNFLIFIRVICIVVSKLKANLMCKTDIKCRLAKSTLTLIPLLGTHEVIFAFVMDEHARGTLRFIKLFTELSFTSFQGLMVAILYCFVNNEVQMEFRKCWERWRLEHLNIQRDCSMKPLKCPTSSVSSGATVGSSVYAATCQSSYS
Procedure: as §1, §2, §3, §4, §5, §6, §7, §8

[7] = batch 1 unless a batch is given, read-out: cAMP activity hGLP1r (EC50)
[8] = Batch 1, read-out: hGLP1r cAMP activity EC50

T1 sequence (P43220 24-463): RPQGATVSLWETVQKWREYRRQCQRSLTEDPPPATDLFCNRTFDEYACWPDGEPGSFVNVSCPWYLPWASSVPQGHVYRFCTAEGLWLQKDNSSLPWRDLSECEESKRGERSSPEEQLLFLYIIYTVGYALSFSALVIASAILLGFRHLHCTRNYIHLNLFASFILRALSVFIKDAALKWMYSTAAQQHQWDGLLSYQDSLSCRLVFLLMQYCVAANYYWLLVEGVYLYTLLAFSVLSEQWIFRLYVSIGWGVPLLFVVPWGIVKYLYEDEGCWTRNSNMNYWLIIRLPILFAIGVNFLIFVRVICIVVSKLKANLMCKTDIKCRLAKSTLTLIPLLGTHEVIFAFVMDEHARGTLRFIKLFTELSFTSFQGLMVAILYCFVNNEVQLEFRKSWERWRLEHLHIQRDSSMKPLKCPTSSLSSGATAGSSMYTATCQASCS
T3 sequence (P47871 26-477): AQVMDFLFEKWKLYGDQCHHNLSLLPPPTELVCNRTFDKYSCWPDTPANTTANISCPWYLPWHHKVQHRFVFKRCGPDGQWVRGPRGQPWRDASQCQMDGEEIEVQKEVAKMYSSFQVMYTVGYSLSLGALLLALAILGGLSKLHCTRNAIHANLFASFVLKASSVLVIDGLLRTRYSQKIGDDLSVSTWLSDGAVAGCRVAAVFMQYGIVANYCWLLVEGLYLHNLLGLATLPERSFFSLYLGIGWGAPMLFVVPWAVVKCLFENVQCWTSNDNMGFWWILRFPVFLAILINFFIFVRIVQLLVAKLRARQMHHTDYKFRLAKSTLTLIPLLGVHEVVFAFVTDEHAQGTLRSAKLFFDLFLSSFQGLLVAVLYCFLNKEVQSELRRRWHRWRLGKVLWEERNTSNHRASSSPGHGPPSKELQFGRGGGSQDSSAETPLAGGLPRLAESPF

EC50 [1, 7] [nM] | EC50 [2] [nM] | EC50 [3] [nM] | EC50 [4] [nM] | EC50 (rat GIP receptor (rGIPr)) [nM] | EC50 [1, 8] [nM] | EC50 [5] [nM] | EC50 [6] [nM] | Substance
0.067 | – | – | – | – | – | – | – | IP231 (HGEGTFTSDVSSYLEEQAAKEFIAWLVKGGGGGGSGGGGSGGGGSGGGGSATHTCPPC; also: forms dimer via hinge disulfides)
– | 1.3 | > 4860 | 370 | 0.22 | 230 | 0.2 | > 4860 | IP368 (YSEGTFTSDYRQAIDRQAIDEFIAWLLKGGGGGGGSGGGGSGGGGSGGGGSACPPC)
– | 3.2 | ≥ 1100 | 47 | 1.7 | 230 | 0.26 | > 1130 | IP305: Fc fusion, IgG1-TM(ΔK), SEQ ID NO:430; agonist peptide YSEGTFISDYSIALAAAAVRDFVNWLLAGG (YSEGTFISDYSIALAAAAVRDFVNWLLAGGGGGGGSGGGGSGGGGSGGGGSATHTCPPC)
– | 0.95 | > 2420 | 61 | 0.43 | 670 | 0.074 | 1500 | IP311 (YSEGTFISDYSIALAAAAIDDFVNWLLAGGGGGGGSGGGGSGGGGSGGGGSATHTCPPC)
0.073 | – | – | – | – | – | – | – | IP196 (HGEGTFTSDVSSYLEGQAAKEFIAWLVKGAAAGGSGSTASSGSGSATGGGGAPEF; /note=“Description of Artificial Sequence Synthetic Peptide-linker-hinge polypeptide”)
– | 43 | > 3560 | 23 | 5.1 | 75 | 4.7 | 670 | IP342 (YSEGTFTSDYSAAAEAAAAAAFAAWLAAAAGGGGGSGGGGSGGGGSGGGGSACPPC)
– | 35 | ≥ 4500 | > 4470 | 14 | ≥ 4500 | 0.05 | > 4470 | IP318: Fc fusion, IgG1-TM(ΔK), SEQ ID NO:432; agonist peptide YSEGTFISDYSIAMDEEAVRDFVEWLKAGG (YSEGTFISDYSIAMDEEAVRDFVEWLKAGGGGGGGSGGGGSGGGGSGGGGSATHTCPPC)
